Here are results for 2 compounds from US20070202051A1, “Aerosols for sinunasal drug delivery” (Pari GmbH, priority 2006, published 2007).

For series [1] the following is noted: at 25° C.; cited from earlier work.
Series [2] in a line: Aerosol droplet size (mass median diameter, geometric standard deviation) by laser diffraction. Type of series: physicochemical. Conditions: aerosol generator of Example 5 (LC Sprint Junior-like + PARI SINUS); Example 9.
A short description of series [3]: Physicochemical properties of the liquid test formulations.

Consider `OC[C@H]1O[C@@H]2O[C@H]3[C@H](O)[C@@H](O)[C@@H](O[C@H]4[C@H](O)[C@@H](O)[C@@H](O[C@H]5[C@H](O)[C@@H](O)[C@@H](O[C@H]6[C@H](O)[C@@H](O)[C@@H](O[C@H]7[C@H](O)[C@@H](O)[C@@H](O[C@H]1[C@H](O)[C@H]2O)O[C@@H]7CO)O[C@@H]6CO)O[C@@H]5CO)O[C@@H]4CO)O[C@@H]3CO` [α-cyclodextrin], for which, in series [1], the aqueous solubility result was “about 145 mg/mL”.

As to DNAse, the mass median diameter of the aerosol in series [2] came out at 3.19 µm. For the same compound, in series [3], the “dynamic viscosity of the solution” value stood at 0.98 mPa·s, the osmolality of the solution came out at 285 mOsm/kg, the “pH of the solution” value is listed as 6.5 and the “surface tension of the solution” value was 72.1 mN/m.
